Reference: patent publication US20180230213A1 (AVEO PHARMACEUTICALS, published 2018)

What was measured:
[1] = target: T1, human Notch3 on the cell surface (human, UniProt Q9UM47 40-2321); experiment: FACS on RL-952 cells (human Notch3), 4 C, one site binding fit
T1 construct: whole, on cells; the cells carry the full length protein; also called cell surface human Notch3; hNotch3
Procedure: (§1) Binding to cell surface human Notch3 by the antibody 4F11 was measured at 4° C., using Fluorescence Activated Cell Sorting (FACS). CHO N3 (Flp-In-CHO cells (Invitrogen) stably transfected with human Notch3), HCC2429 cells, and RL-952 cells expressing human Notch3 were washed once with PBS containing calcium chloride and magnesium chloride (Invitrogen) and harvested using cell dissociation buffer (Invitrogen). Cells were washed a second time with PBS and resuspended in FACS buffer (PBS with 0.5% BSA (Sigma-Aldrich)) for a final cell concentration of 250,000 cells per well into a 96-well v-bottom plate. Purified antibodies were diluted in FACS buffer over a concentration range of 100 nM to 0.1 nM. Cells were then incubated at 4° C. with […] of antibody for one hour, washed with FACS buffer twice, and resuspended in […] of goat-anti mouse PE-conjugated antibody (Jackson Immuno Research). Cells were incubated at 4° C. for 30 minutes in the dark, washed once with FACS buffer, and then analyzed using a Beckman Coulter Cytomics FC 500 instrument. The geometric mean of the florescent intensity was then calculated for each antibody concentration. These values were then entered into Prism software (GraphPad, La Jolla, Calif.) and used to generate a binding curve by plotting geometric mean versus antibody concentration. […]

[2] = target: T1, human Notch3 on the cell surface; experiment: cell-based or functional assay
[3] = target: T1, human Notch3 on the cell surface; experiment: FACS on HCC2429 cells (human Notch3), 4 C, one site binding fit
Procedure: as §1

[4] = target: T2, rhNotch2-Fc (human, UniProt Q04721 26-530); experiment: BLI (Octet QK): rhNotch2-Fc loaded on anti-human-Fc sensors, then antibody 4F11 in solution
T2 construct: also called human Notch2 protein; R&D Cat. No. 3735-NT-050
T2 sequence (looked up): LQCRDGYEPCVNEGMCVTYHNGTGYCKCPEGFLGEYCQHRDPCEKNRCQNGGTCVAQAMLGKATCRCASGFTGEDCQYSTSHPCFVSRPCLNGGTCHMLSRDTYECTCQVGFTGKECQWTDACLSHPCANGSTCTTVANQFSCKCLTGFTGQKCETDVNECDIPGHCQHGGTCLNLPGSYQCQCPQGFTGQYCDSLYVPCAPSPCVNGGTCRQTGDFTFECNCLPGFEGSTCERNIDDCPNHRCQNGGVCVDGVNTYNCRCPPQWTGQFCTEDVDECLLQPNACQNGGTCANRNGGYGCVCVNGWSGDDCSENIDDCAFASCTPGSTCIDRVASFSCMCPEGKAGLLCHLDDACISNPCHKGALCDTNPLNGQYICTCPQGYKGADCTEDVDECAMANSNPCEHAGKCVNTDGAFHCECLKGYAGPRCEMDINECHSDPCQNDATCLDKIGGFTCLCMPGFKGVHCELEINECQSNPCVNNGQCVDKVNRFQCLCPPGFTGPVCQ
Procedure: Antibody 4F11 was tested for binding to human Notch1, human Notch2, or human Notch3 proteins. Binding measurements were made by biolayer interferometry (BLI), using a FortéBio Octet® QK instrument (FortéBio, Menlo Park, Calif.). Anti-human-Fc sensors were soaked in PBS containing 1 mg/ml BSA for five minutes prior to binding of antibodies. Then the following proteins (400 nM, in PBS containing 1 mg/ml BSA) were allowed to bind to the sensors: rhNotch1-Fc (R&D Systems, Minneapolis, Minn.; Cat. No. 3647-TK-050), rhNotch2-Fc (R&D Cat. No. 3735-NT-050), rhNotch3-Fc (R&D Cat. No. 1559-NT-050), or rmNotch3-Fc (R&D Cat. No. 1308-NT-050). Notch protein bound sensors were immersed in antibody solution (50 μg/ml) to allow binding of antibody to the Notch protein. Binding was detected by shifts in the interference pattern.

B1: antibody 4F11 (murine monoclonal anti-human Notch3) (antibody, mouse IgG1, kappa, V domains shown)
VH: EVQLVESGGGLVKPGGSLKLSCAASGFAFSSYDMSWVRQTPEKRLEWVAYISRGGGSTYYPDTVKGRFTISRDNAKNTLYLQMSSLKSEDTAMYYCGRHATTAYWYFDVWGAGTTVTVSS
VL: DVVMTQTPLSLPVSLGDQASISCRSSQSLVHTNGNTYLHWYLQKPGQSPKLLIYKVSNRFSGVPDRFSGSGSGTDFTLKISRVEAEDLGVYFCSQSTHVPWTFGGGTKLEIKR
notes: Mouse IgG1 kappa purified from hybridoma; also called mu4F11; murine 4F11
B1 was tested, and the Kd [1] was 0.963 nM, the “EC50, inhibition of Notch3-dependent reporter activity stimulated by DLL1” value [2] was 6 nM and the “EC50, inhibition of Notch3-dependent reporter activity stimulated by DLL4” value [2] was 4.7 nM. The “EC50, inhibition of Notch3-dependent reporter activity stimulated by Jag1” value [2] was 2.6 nM, the “EC50, inhibition of Notch3-dependent reporter activity stimulated by Jag2” value [2] was 0.4 nM and the Kd [3] was 2.58 nM. B1: no binding [4].
